# B1: YTH24.5 (antibody)
# heavy: QVNLLQSGAALVKPGASVKLSCKASSYTFTDYYIHWVKQSHGKTLEWIGYINPKSGFTNYNEKFRRKATLTVDKSTNTAYMDISRLTSEDSATYYCTRRTGVIPMDAWGQGASVTVSSAQTTAPSVYPLAPGCGDTTSSTVTLGCLVKGYFPEPVTVTWNSGALSSDVHTFPAVLQSGLYTLTSSVTSSTWPSQTVTCNVAHPASSTKVDKKVERRNGGIGHKCPTCPTCHKCPVPELLGGPSVFIFPPKPKDILLISQNAKVTCVVVDVSEEEPDVQFSWFVNNVEVHTAQTQPREEQYNSTFRVVSALPIQHQDWMSGKEFKCKVNNKALPSPIEKTISKPKGLVRKPQVYVMGPPTEQLTEQTVSLTCLTSGFLPNDIGVEWTSNGHIEKNYKNTEPVMDSDGSFFMYSKLNVERSRWDSRAPFVCSVVHEGLHNHHVEKSISRPPGK
# light: DVVMTQTPVSLSVSLGGQVSISCRSSQSFVSSDGNTYLNWYLQKPGQSPQLLIYKVSNRLSGVPDRFSGSGSGTDFTLKISRVEHDDLGVYYCGQASKIPLTFGSGTKLEIKRADAAPTVSIFPPSMEQLTSGGATVVCFVNNFYPRDISVKWKIDGSEQRDGVLDSVTDQDSKDSTYSMSSTLSLTKVEYERHNLYTCEVVHKTSSSPVVKSFNRNEC
# B2: YTH54.12 (antibody)
# heavy: EVQLVESGGGLVQPGGSMKLSCAASGFTFSDYYMAWVRQAPKKGLEWVASMSFAGSSTYYGDSVKGRFTISRDNAKTTLYLQMNSLRSEDTATYYCARMYTTDYYLYWYFDFWGPGTMVTVSSAQTTAPSVYPLAPGCGDTTSSTVTLGCLVKGYFPEPVTVTWNSGALSSDVHTFPAVLQSGLYTLTSSVTSSTWPSQTVTCNVAHPASSTKVDKKVERRNGGIGHKCPTCPTCHKCPVPELLGGPSVFIFPPKPKDILLISQNAKVTCVVVDVSEEEPDVQFSWFVNNVEVHTAQTQPREEQYNSTFRVVSALPIQHQDWMSGKEFKCKVNNKALPSPIEKTISKPKGLVRKPQVYVMGPPTEQLTEQTVSLTCLTSGFLPNDIGVEWTSNGHIEKNYKNTEPVMDSDGSFFMYSKLNVERSRWDSRAPFVCSVVHEGLHNHHVEKSISRPPGK
# light: DVQMTQSPSYLAASPGESVSISCKASKSISNYLAWYQQKPGEANKILIYSGSTLQSGTPSRFSGSGSGTDFSLTIRNLEPEDFAVYYCQQYDEKPLTFGSGTKLEIKRADAAPTVSIFPPSMEQLTSGGATVVCFVNNFYPRDISVKWKIDGSEQRDGVLDSVTDQDSKDSTYSMSSTLSLTKVEYERHNLYTCEVVHKTSSSPVVKSFNRNEC
# B3: YTH24.5-hIgG1-AAA-PBD: YTH24.5 in human IgG1-AAA format conjugated to PBD drug-linker B1 (conjugate)
# VH: QVNLLQSGAALVKPGASVKLSCKASSYTFTDYYIHWVKQSHGKTLEWIGYINPKSGFTNYNEKFRRKATLTVDKSTNTAYMDISRLTSEDSATYYCTRRTGVIPMDAWGQGASVTVSS
# VL: DVVMTQTPVSLSVSLGGQVSISCRSSQSFVSSDGNTYLNWYLQKPGQSPQLLIYKVSNRLSGVPDRFSGSGSGTDFTLKISRVEHDDLGVYYCGQASKIPLTFGSGTKLEIK
# B4: YTH54.12-hIgG1-AAA-PBD: YTH54.12 in human IgG1-AAA format conjugated to PBD drug-linker B1 (conjugate)
# VH: EVQLVESGGGLVQPGGSMKLSCAASGFTFSDYYMAWVRQAPKKGLEWVASMSFAGSSTYYGDSVKGRFTISRDNAKTTLYLQMNSLRSEDTATYYCARMYTTDYYLYWYFDFWGPGTMVTVSS
# VL: DVQMTQSPSYLAASPGESVSISCKASKSISNYLAWYQQKPGEANKILIYSGSTLQSGTPSRFSGSGSGTDFSLTIRNLEPEDFAVYYCQQYDEKPLTFGSGTKLEIK
# Experiments:
# [1] = tested on: luciferase expressing human CD45+ Jurkat cells; experiment: Jurkat leukaemia model in NSG mice (bioluminescence, survival); type: in vivo; details: 1 mg/kg, day 16
# Method: Adult NSG mice were sublethally irradiated with 2 Gy on the day before injection of cells. 5×10^6 fire fly luciferase expressing Jurkat cells in PBS were injected intravenously into the tail vein of mice. On the following day PBS, MAbs or ADC were injected intravenously into the tail vein at a dose of 1 mg/kg. Mice were regularly monitored for signs of morbidity and weight loss for the duration of the experiment. For imaging, mice were injected intraperitoneally with 3 mg D-luciferin in PBS. Mice were initially anesthetized with 4% isoflurane and then maintained at 2% isoflurane. Ten minutes after injection of D-luciferin, mice were imaged inside a IVIS Lumina III (PerkinElmer). A sub-saturating image was captured using the auto-exposure setting in the Living Image software.
# human CD34+ cells = experiment: Ex vivo treatment of CD34+ cells with Mab or ADC prior to engraftment in NSG mice; details: CD34+ cells treated at 1 nM and 0.1 nM for 4 hours before transplantation; week 8
# Method: Adult female NSG mice were sublethally irradiated with 2.5 Gy on the day before transplantation. Cryopreserved purified CD34+ cells from mobilized peripheral blood from a normal donor were thawed and cultured in complete medium (RPMI 1640 plus 10% fetal calf serum) in presence of Mab, ADC or medium alone for 4 hours. Cells were washed in phosphate buffered saline (PBS) and 0.5×10^6 cells in PBS were injected intravenously into the tail vein of mice. Engraftment of transplanted human cells (hCD45+) in the bone marrow of mice was determined by flow cytometry at 8 weeks after transplantation.
# target cells = experiment: Live-imaging microscopy of antibody internalisation; type: cell-based; details: live-imaging microscopy (data not shown)
# Description: In particular, the lysosomal pathway can be important in providing an environment for cleavage of the antibody-drug linkers, hereby releasing the drug in the target cells for highly specific cell killing.
# CD34+ PBSC (CD45+) = experiment: Clonogenic assay, CD34+ PBSC treated 2 h with Mab or ADC; type: cell-based, human
# Method: Cryopreserved purified CD34+ cells from mobilized peripheral blood from three normal donors were thawed and cultured at […] complete medium (RPMI 1640 plus 10% fetal calf serum) in presence of Mab, ADC or medium alone for 2 hours in 96-well U-bottom plates. Cells were mixed and 40 uL was transferred to 2 ml of StemMACS HSC-CFU complete with Epo (Miltenyi Biotech) and mixed well. 0.5 ml (250 cells) was plated into triplicate into wells of a 24-well plate. Colonies were enumerated between 10-14 days. Data is mean of three donors±s.d.
# human CD45+ OCIM1 cells = experiment: Complement dependent cytotoxicity (51Cr release) assay; type: cell-based; details: 10 ug/ml antibody, 10% baby rabbit serum
# Method: 1×10^6 human CD45+ OCIM1 cells in 100 uL of complete medium (RPMI 1640 plus 10% fetal calf serum) were radiolabelled with 100 μCi ^51Cr sodium chromate for 1 h at 37° C. followed by three washes with complete medium. Labelled cells were incubated at 5×10^4/mL in triplicate wells of a 96 well plate in presence of YTH24.5 alone, YTH54.12 alone or with both antibodies for 10 mins at room temperature before of addition of baby rabbit serum at a final concentration of 10%. A final concentration of 5% Triton X-100 was added to control wells of cells to determined maximum lysis. 50 uL of supernatant from each well was transferred into a white-walled plates containing 150 uL scintillation liquid in each well. Plates were read in a MicroBeta counter (Trilux) after overnight incubation. The percentage of specific lysis was calculated using the standard formula [(experimental−spontaneous release)/(maximum load-spontaneous release)×100] and expressed as the mean of triplicate samples.
# [2] = Dosimetry in non-humanised NSG mice; type: in vivo; details: for Comment (survival / culling): non-humanised NSG mice, monitored 2 weeks; for mice culled due to weight loss: human (hIgG1-AAA) format, ≥3 mg/kg, humanised and non-humanised mice
# Method: For dosimetry in non-humanised NSG mice, adult NSG mice were injected intravenously via the tail vein with unconjugated Mab or ADC up to 5 mg/kg. Mice regularly monitored over a period of 2 weeks for any signs of morbidity. Mice were culled if rapid weight loss (>15%) occurred over a period of 2 days.
# human CD45+ cells = experiment: Depletion of human CD45+ cells in humanised NSG mice; type: in vivo; details: for course of the levels of human CD45+ cells in blood: 1 mg/kg, two week period
# Method: Adult female NSG mice were sublethally irradiated with 2.5 Gy on the day before transplantation (day −57). Cryopreserved purified CD34+ cells from mobilized peripheral blood from a normal donor were thawed and 0.5×10^6 cells in PBS were injected intravenously into the tail vein of mice (day −56). Human engraftment (human CD45+ cells) in the blood of mice was assessed at day −14 and day −1. Mice were assigned to treatment cohorts so that the median human CD45+ engraftment in the blood between the cohorts was as similar as possible. Mice were injected with 0.3 mg/kg or 1 mg/kg Mab or ADC intravenously via the tail vein. Blood samples were taken after 7 days and analysed by flow cytometry. The bone marrow, blood and spleen of mice were analysed at two weeks post-treatment.
# 293T (CD45-) = experiment: Cell viability assay 72 h (PrestoBlue), 293T; type: cell-based, human; details: drug-linker B1
# Method: OCIM1, Jurkat and Nalm6 cells were seeded at 0.5×10^5/mL were cultured for 72 hours in presence of Mab or ADC or medium (in triplicate wells) in wells of flat bottom 96-well plates. 293T cells were seeded at 9.3×10^3 cells per well in flat bottom 96-well plates and allowed to adhere the plate for up to 24 hours. 293T cells were subsequently cultured with Mab or ADC or medium (in triplicate wells) for 72 hours. PrestoBlue® Cell viability Reagent (Thermo Fisher Scientific) was added to each and incubated for up to 1.5 hours. Fluorescence intensity from each well was detected using a FLUOstar OPTIMA microplate reader (BMG Labtech). Data points are mean±s.d. for representative experiments.
# [3] = Dosimetry in humanised NSG mice; type: in vivo; details: 3 mg/kg, culled for weight loss >15%
# Method: For dosimetry in humanised NSG mice, adult female NSG mice were sublethally irradiated with 2.5 Gy on the day before transplantation. Cryopreserved purified CD34+ cells from mobilized peripheral blood from a normal donor were thawed and 0.5×10^6 cells in PBS were injected intravenously into the tail vein. Human engraftment (human CD45+ cells) in the blood of all mice was determined by flow cytometry at 12 weeks post-transplant. Mice were assigned to treatment cohorts so that the median human engraftment in the blood for between cohorts was as similar as possible. Mice were treated with 0.3 mg/kg or 3 mg/kg Mab or ADC. Blood samples were taken after 7 days and analysed by flow cytometry. The bone marrow, blood and spleen of mice were analysed at 14 days post-treatment.
# [4] = MAbs in human IgG1-AAA or rat IgG2b format, Isotype control and Isotype control PBD rat IgG2b format only
# [5] = PBD ADCs in human IgG1-AAA format
Molecule,bioluminescent signal of naked antibody group relative to the corresponding ADC group [1],engraftment of human CD45+ cells in the bone marrow of NSG mice (human CD34+ cells),internalisation (target cells),inhibition of colony formation (CD34+ PBSC (CD45+); [4]),lytic activity on OCIM1 cells (human CD45+ OCIM1 cells),Comment (survival / culling) ([2]; 5 mg/kg i.v.),"Mean % hCD45 levels in blood, 1 week post-treatment (human CD45+ cells; 0.3 mg/kg i.v.)","Mean % hCD45 levels in blood, 2 weeks Post-treatment (human CD45+ cells; 0.3 mg/kg i.v.)","Mean % hCD45 levels in blood, 1 week post-treatment (human CD45+ cells; 1 mg/kg i.v.)","Mean % hCD45 levels in blood, 2 weeks Post-treatment (human CD45+ cells; 1 mg/kg i.v.)",course of the levels of human CD45+ cells in blood (human CD45+ cells),"Mean % hCD45 levels in blood, Pre-treatment (human CD45+ cells; group later dosed 0.3 mg/kg)","Mean % hCD45 levels in blood, Pre-treatment (human CD45+ cells; group later dosed 1 mg/kg)",inhibition of colony formation (CD34+ PBSC (CD45+); [5]),EC50 (293T (CD45-)),Comment (survival / culling) [3],Comment (survival / culling) ([2]; 0.5 mg/kg i.v.),mice culled due to weight loss [2]
B1,100 fold,prevented engraftment,substantially internalised via a lysosomal pathway,do not inhibit colony formation,showed lytic activity,All alive at day 14,3.53%,4.72%,0.82%,3.92%,transient reduction,5.55%,5.47%,,,,,
B2,10 fold,prevented engraftment,substantially internalised via a lysosomal pathway,do not inhibit colony formation,no lytic activity,All alive at day 14,3.19%,3.81%,1.02%,1.84%,transient reduction,5.52%,5.98%,,,,,
B3,,,,,,2 culled at day 6 -,,,,,,,,dose-dependent inhibition of colony formation,134 nM,"1 culled day 6, 1",All alive at day 14,4 of the 6
B4,,,,,,All alive at day 14,,,,,,,,dose-dependent inhibition of colony formation,16.5 nM,1 culled on day 9,All alive at day 14,1 of the 6

# Reference: US20220096654A1, “PYRROLOBENZODIAZEPINE-ANTIBODY CONJUGATES AND USES THEREOF” (ADC THERAPEUTICS SA, priority 2020, published 2022)
